Laboratory results taken from PMC11414720, “Molecular basis of TMED9 oligomerization and entrapment of misfolded protein cargo in the early secretory pathway” (Science Advances, 2024).
Substitutions are numbered along the chain they refer to. Names may count otherwise. “And” between values parts separate entries of the source, which are not always exact repeats. Identical values can stand only once.

B1: full-length human TMED9 (transmembrane emp24 domain 9), FLAG-tagged (receptor, UniProt Q9BVK6 38-235, looked up)
chain: LYFHIGETEKKCFIEEIPDETMVIGNYRTQLYDKQREEYQPATPGLGMFVEVKDPEDKVILARQYGSEGRFTFTSHTPGEHQICLHSNSTKFSLFAGGMLRVHLDIQVGEHANDYAEIAAKDKLSELQLRVRQLVEQVEQIQKEQNYQRWREERFRQTSESTNQRVLWWSILQTLILVAIGVWQMRHLKSFFEAKKLV
notes: TMED9 (transmembrane emp24 domain 9), human, full length; Seen as octamer, dodecamer and higher-order oligomers; the rows are of the chain with itself; TMED9 has a signal peptide; No cleavage of the tag is described; also called WT TMED9; recombinant TMED9; source: Expi293F, transiently transfected, purified in LMNG+CHS (anti-FLAG resin, Superose 6 gel filtration); not shown: FLAG, N-terminal, …
B2: TMED9 W205A (receptor, human, UniProt Q9BVK6 38-235, looked up)
chain: B1 chain with W168A
notes: TMED9, human, mutant of the full-length protein; also called CC interface mutation W205A
B3: TMED9 R223E (for gel filtration and mass photometry) (receptor, human, UniProt Q9BVK6 38-235, looked up)
chain: B1 chain with R186E
notes: TMED9, human, mutant of the full-length protein
B4: TMED9 Q177A (receptor, human, UniProt Q9BVK6 38-235, looked up)
chain: B1 chain with Q140A
notes: TMED9, human, mutant of the full-length protein; also called CC interface mutation Q177A
B5: TMED9 E190R (receptor, human, UniProt Q9BVK6 38-235, looked up)
chain: B1 chain with E153R
notes: TMED9, human, mutant of the full-length protein; also called CC domain mutation E190R
B6: TMED9 R191E (receptor, human, UniProt Q9BVK6 38-235, looked up)
chain: B1 chain with R154E
notes: TMED9, human, mutant of the full-length protein; also called CC interface mutation R191E

What was measured:
[1] = biological target: the molecule itself; assay: mass photometry; Refeyn TwoMP; samples in 0.003% LMNG, 0.0003% CHS diluted from 7 μM into 25 mM Hepes pH 7.4, 150 mM KCl, 1 mM DTT, measured within 10 s
[2] = biological target: the molecule itself; assay: cryo-EM structure; purified TMED9 at 1.7 mg/ml in 20 mM tris pH 8.0, 150 mM NaCl, 0.02% LMNG+CHS; octamer refined with C2 symmetry, dodecamer with no symmetry
[3] = biological target: the molecule itself; assay: SEC; gel filtration of overexpressed protein in octyl-β-glucoside, a harsher detergent
[4] = biological target: the molecule itself; assay: SEC; Superose 6 gel filtration of TMED9 purified on anti-FLAG resin in LMNG+CHS (20 mM tris pH 8.0, 150 mM NaCl); solubilization by digitonin or glyco-diosgenin gave a similar size distribution

| Protein | binding result [4] | binding result [1] | further results |
| --- | --- | --- | --- |
| B1 | – | – | stoichiometry N [1]: ≥ 8; stoichiometry N [2]: 8 and 12; stoichiometry N [3]: 2 |
| B2 | binds | – | – |
| B3 | – | binds | – |
| B4 | binds | – | – |
| B5 | – | binds | – |
| B6 | binds | – | – |
